This assay concerns the target T1, ActRIIB-Fc (human).
T1 construct: The leader is stated as aa 1-21; also called ActRIIB fusion polypeptide; recombinant ActRIIB-Fc
The assay is described as follows: ELISA: ActRIIB-Fc coated at 1 ug/ml, biotinylated ligand titrated, SA-HRP detection. On the procedure:
Biotinylated mature BMP-11 was prepared from BMP-11 latent complex in the same manner as described above. Recombinant ActRIIB-Fc, prepared as described in Examples 3 and 4, was coated on 96-well flat-bottom assay plates (Costar, NY, Cat. No. 3590) at 1 μg/ml in 0.2 M sodium carbonate buffer (pH 10) overnight at 4° C. Plates were then blocked with 1 mg/ml bovine serum albumin and washed following standard ELISA protocol. 100 μl aliquots of biotinylated GDF-8 or BMP-11 at various concentrations were added to the blocked ELISA plate, incubated for 1 hr and washed. The amount of bound GDF-8 or BMP-11 was detected by Streptavidin-Horseradish peroxidase (SA-HRP, BD PharMingen, San Diego, Calif., Cat. No. 13047E) followed by the addition of TMB (KPL, Gaithersburg, Md., Cat. No. 50-76-04). Colorimetric measurements were done at […] in a Molecular Devices microplate reader.

T1 sequence (chain, as listed by the source): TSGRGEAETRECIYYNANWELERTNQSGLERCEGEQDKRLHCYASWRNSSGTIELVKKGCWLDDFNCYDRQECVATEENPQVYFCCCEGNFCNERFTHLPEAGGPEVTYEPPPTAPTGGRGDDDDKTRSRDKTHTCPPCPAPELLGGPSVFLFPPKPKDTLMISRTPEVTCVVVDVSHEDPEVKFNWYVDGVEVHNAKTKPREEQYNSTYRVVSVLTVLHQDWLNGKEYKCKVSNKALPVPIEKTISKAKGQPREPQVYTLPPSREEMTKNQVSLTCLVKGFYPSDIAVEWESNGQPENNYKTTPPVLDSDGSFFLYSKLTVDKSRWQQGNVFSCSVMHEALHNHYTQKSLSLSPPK

B1: biotinylated mature BMP-11 (ligand, human, UniProt O95390 299-407, looked up)
chain: NLGLDCDEHSSESRCCRYPLTVDFEAFGWDWIIAPKRYKANYCSGQCEYMFMQKYPHTHLVQQANPRGSAGPCCTPTKMSPINMLYFNDKQQIIYGKIPGMVVDRCGCS
modifications: biotinylated with EZ-link Sulfo-NHS-Biotin, in the same manner as GDF-8; sites not stated
notes: mature; Active mature BMP-11 dimer purified from a cell line expressing recombinant human BMP-11; also called biotinylated BMP-11; GDF-11
In turn, B1 had an EC50 of 0.04 µg/mL.

In general, EC50 refers to the concentration giving half of the maximal effect. Lower therefore signals an effect from little substance.

The values above are taken from patent US20040223966A1 (Pfizer, published 2004).
